43 sequences from the Immune Epitope Database (IEDB) can be followed below.

pKd: −log10 of the molar value. Where only a bound is given, the exact number is not on record here.

The term pKd denotes the negative decadic logarithm of the Kd, by convention in mol/L.

For one experiment, the target named is HLA-A*24:03. The experiment in a line: IEDB peptide-MHC binding, purified MHC/direct/fluorescence; filed as Kd, often an IC50 or EC50 that approximates it; ≥ and ≤ were set here for values at or beyond the usual limits of such assays. Conditions: source organism: Vibrio parahaemolyticus.
The target of a further experiment is HLA-A*30:01. Put plainly: IEDB peptide-MHC binding, purified MHC/competitive/radioactivity; filed as Kd, often an IC50 or EC50 that approximates it; ≥ and ≤ were set here for values at or beyond the usual limits of such assays.
The next experiment deals with HLA-B*08:01. Described as above.
Another experiment has as its target HLA-A*68:02. The description is as above.
Experiment [1] concerns the target HLA-B*51:01. The experiment in a line: IEDB peptide-MHC binding, purified MHC/competitive/fluorescence; filed as Kd, often an IC50 or EC50 that approximates it; ≥ and ≤ were set here for values at or beyond the usual limits of such assays.
The target in the next experiment is HLA-A*26:01. The experiment in a line: IEDB peptide-MHC binding, purified MHC/competitive/radioactivity; filed as Kd, often an IC50 or EC50 that approximates it; ≥ and ≤ were set here for values at or beyond the usual limits of such assays. As to conditions: source organism: Dengue virus 3 Martinique/1243/1999.
A further experiment concerns the target HLA-A*68:01. The experiment is described as above. As to conditions: source organism: Dengue virus 1 Brazil/97-11/1997.
Another experiment concerns the target HLA-B*35:01. The description is as above.
The target in another experiment is HLA-A*02:02. The experiment is described as above.
In a further experiment the target is HLA-A*02:03. Described as above.
The target of another experiment is HLA-A*02:06. The description is as above.
Another experiment has as its target HLA-B*15:01. The description is as above.
The target in a further experiment is HLA-A*02:01. Put plainly: IEDB peptide-MHC binding, purified MHC/competitive/fluorescence; filed as Kd, often an IC50 or EC50 that approximates it; ≥ and ≤ were set here for values at or beyond the usual limits of such assays. As to conditions: source organism: Variola virus.
Experiment [2] addresses HLA-B*51:01. Put plainly: IEDB peptide-MHC binding, purified MHC/competitive/radioactivity; filed as Kd, often an IC50 or EC50 that approximates it; ≥ and ≤ were set here for values at or beyond the usual limits of such assays. As to conditions: source organism: Dengue virus 4 Philippines/H241/1956.
Another experiment concerns the target HLA-B*53:01. Described as above. As to conditions: source organism: Dengue virus 3 Singapore/8120/1995.
Where [3] appears, read: source organism: Dengue virus 1 Brazil/97-11/1997.
Setting [4] is: source organism: Vaccinia virus WR.
The mark [5] stands for this setting: source organism: Dengue virus 2 Jamaica/1409/1983.
Setting [6] is: source organism: Dengue virus 3 Martinique/1243/1999.
[7] abbreviates: source organism: Mammarenavirus juninense.
Where [8] appears, read: source organism: Dengue virus 4 Philippines/H241/1956.
Setting [9] is: source organism: Lassa virus GA391.

As for AFYLWIVGF, in the experiment with HLA-A*24:03, the negative logarithm of the Kd (pKd) is 5.68.
For AIFMTATPPG, in the experiment with HLA-A*30:01 (setting [3]), the pKd is 6.75.
As to DLRRRFDTF, the pKd with HLA-B*08:01 (setting [4]) was 8.80.
For the sequence EAAAIFMTA, in the experiment with HLA-A*68:02 (setting [3]), the pKd was 9.52.
For ELMMATIGI, in the experiment with HLA-A*68:02 (setting [5]), the pKd is 8.99.
For the sequence ENRLHKECL, the pKd in the experiment with HLA-B*08:01 (setting [4]) was 7.14.
Regarding EPNFSIPQI, in the experiment with HLA-B*51:01 [1] (source organism: Mycobacterium tuberculosis variant bovis BCG str. Pasteur 1173P2), the pKd is 6.57.
Take ETACLGKAYA: the negative-log Kd (pKd) in the experiment with HLA-A*26:01 is 6.68; with HLA-A*68:02 (setting [6]), 8.44.
Take FALLKFTYL: the pKd with HLA-B*08:01 (setting [4]) is 8.80.
Same read-out and setting: under FNKDIFVSL stands 6.56.
For the sequence FTNMEVQLIR, the negative-log Kd (pKd) in the experiment with HLA-A*68:01 was 7.06; with HLA-B*35:01 (setting [3]) it was 4.84.
On to GGALVRNPLS, for which, in the experiment with HLA-A*30:01 (setting [5]), the pKd was 5.28.
Regarding GLSQFTQTV, the pKd was 8.41 in the experiment with HLA-A*02:02 (setting [7]), 9.16 with HLA-A*02:03 (setting [7]), 6.14 with HLA-A*02:06 (setting [7]) and at most 4.59 in the experiment with HLA-A*68:02 (setting [7]).
As for GMNSRSTSL, the pKd in the experiment with HLA-A*02:03 (setting [5]) is 7.74; in the experiment with HLA-B*08:01 (setting [5]), 8.11; in the experiment with HLA-B*15:01 (setting [5]), 7.06.
As for HASPTLFNA, in the experiment with HLA-A*30:01 (setting [4]), the negative logarithm of the Kd (pKd) is 7.18.
HLIFSYAFL: the pKd with HLA-A*30:01 (setting [4]) was 6.67.
On to HMILVVVTTL, for which the pKd with HLA-B*08:01 (setting [8]) was 5.29; with HLA-B*15:01 (setting [8]) it was 6.39.
For IFKLTYQNK, the pKd with HLA-A*30:01 (setting [5]) was 6.47.
For the sequence ILKNSQGEEV, the pKd in the experiment with HLA-A*02:06 (source organism: Homo sapiens) is at most 4.14; with HLA-A*68:02 (source organism: Homo sapiens) it was 5.65.
With IMGQLTWNDL, the pKd with HLA-B*08:01 (setting [3]) is 5.19.
On to IPNDFKELV, for which, in the experiment with HLA-B*51:01 [1] (source organism: Rickettsia typhi str. Wilmington), the pKd was 6.35.
KAERVIDPRR: the pKd with HLA-A*30:01 (setting [5]) is 4.94.
As to KARDALDNL, the pKd with HLA-A*30:01 (setting [5]) was 7.15.
KARNALDNL: in the experiment with HLA-A*30:01 (source organism: Dengue virus 2 16681-PDK53), the pKd is 7.71.
As for KTMMINPFM, the pKd in the experiment with HLA-A*30:01 (setting [4]) was 9.44.
Same read-out and setting: the figure for KVIVRNLNK is 8.84.
LALDSYWPV had a negative-log Kd (pKd) with HLA-B*51:01 [1] (source organism: Yersinia pestis Nepal516) of 6.15.
Turning to LDILTEIASL, the pKd with HLA-B*08:01 (setting [8]) is 6.06.
Sequence LIDNPDNNL gave a pKd with HLA-A*02:01 of 7.11.
For LLITHYAII, the figures for the pKd with HLA-A*02:03 (setting [6]) and in the experiment with HLA-B*08:01 (setting [6]) were 7.74 and 6.43, respectively.
For the sequence LLNVKMALDI, the pKd in the experiment with HLA-A*02:03 (source organism: Homo sapiens) is 7.08; with HLA-A*68:02 (source organism: Homo sapiens), 6.00.
As to LLSGAGEHL, the results for the negative logarithm of the Kd (pKd) with HLA-A*02:02 (source organism: Homo sapiens), with HLA-A*02:03 (source organism: Homo sapiens) and with HLA-A*68:02 (source organism: Homo sapiens) were 8.24, 7.72 and at most 4.33, respectively.
On to LPVYLMTLMK, for which the pKd with HLA-B*35:01 (setting [8]) is 6.48; with HLA-B*51:01 [2], 5.15.
For LSYEPDNIV, the pKd in the experiment with HLA-B*51:01 [1] (source organism: Listeria monocytogenes 10403S) is at most 4.70.
As for MAIGIVSILL, the pKd with HLA-A*68:02 (setting [3]) was 7.82.
As for MAMVLSIVSL, in the experiment with HLA-B*08:01 (source organism: Dengue virus 1 Singapore/S275/1990), the pKd was 6.08.
Turning to MPGIFQTTTG, the pKd with HLA-B*35:01 (source organism: Dengue virus 3 Singapore/8120/1995) is 5.93; with HLA-B*53:01 it was 6.26.
Consider MRFKKESSL, for which the pKd in the experiment with HLA-B*08:01 (setting [4]) was 8.47.
Consider MRGAKRMAI, for which the pKd with HLA-B*08:01 (setting [5]) was 8.61.
Take MSKIKHKIF: the negative-log Kd (pKd) in the experiment with HLA-B*08:01 (setting [4]) is 9.07.
On to MVNGVVRLL, for which, in the experiment with HLA-A*68:02 (setting [5]), the pKd was 7.59.
On to NISGYNFSL, for which the pKd with HLA-A*02:02 (setting [9]) was 7.14; with HLA-A*02:03 (setting [9]), 5.68; with HLA-A*02:06 (setting [9]) it was 6.83; with HLA-A*68:02 (setting [9]), 6.75.
On to NLEKQIATL, for which the pKd with HLA-A*68:02 (source organism: Homo sapiens) is at most 4.58.
